Assay [1] addresses collagen I (UniProt P02452). In words: SPR; Biacore X100; collagen I or collagen III immobilised by amine coupling on a CM5 chip (around 1000 RU); CBD-SA-IL-4 flowed 90 s (collagen I) or 30 s (collagen III) at 30 μl/min; Langmuir 1:1 fit with drifting baseline. (SPR reads the build-up and loss of mass on a sensor chip optically.)
For assay [2], the target named is collagen III (UniProt P02461). The description is as above.
In assay [3] the target is collagen I (UniProt P02452). The experiment in a line: SPR.

Consider two substances from paper PMC10495343.

Sequence of collagen I (P02452 162-1218, chain 1 of 2): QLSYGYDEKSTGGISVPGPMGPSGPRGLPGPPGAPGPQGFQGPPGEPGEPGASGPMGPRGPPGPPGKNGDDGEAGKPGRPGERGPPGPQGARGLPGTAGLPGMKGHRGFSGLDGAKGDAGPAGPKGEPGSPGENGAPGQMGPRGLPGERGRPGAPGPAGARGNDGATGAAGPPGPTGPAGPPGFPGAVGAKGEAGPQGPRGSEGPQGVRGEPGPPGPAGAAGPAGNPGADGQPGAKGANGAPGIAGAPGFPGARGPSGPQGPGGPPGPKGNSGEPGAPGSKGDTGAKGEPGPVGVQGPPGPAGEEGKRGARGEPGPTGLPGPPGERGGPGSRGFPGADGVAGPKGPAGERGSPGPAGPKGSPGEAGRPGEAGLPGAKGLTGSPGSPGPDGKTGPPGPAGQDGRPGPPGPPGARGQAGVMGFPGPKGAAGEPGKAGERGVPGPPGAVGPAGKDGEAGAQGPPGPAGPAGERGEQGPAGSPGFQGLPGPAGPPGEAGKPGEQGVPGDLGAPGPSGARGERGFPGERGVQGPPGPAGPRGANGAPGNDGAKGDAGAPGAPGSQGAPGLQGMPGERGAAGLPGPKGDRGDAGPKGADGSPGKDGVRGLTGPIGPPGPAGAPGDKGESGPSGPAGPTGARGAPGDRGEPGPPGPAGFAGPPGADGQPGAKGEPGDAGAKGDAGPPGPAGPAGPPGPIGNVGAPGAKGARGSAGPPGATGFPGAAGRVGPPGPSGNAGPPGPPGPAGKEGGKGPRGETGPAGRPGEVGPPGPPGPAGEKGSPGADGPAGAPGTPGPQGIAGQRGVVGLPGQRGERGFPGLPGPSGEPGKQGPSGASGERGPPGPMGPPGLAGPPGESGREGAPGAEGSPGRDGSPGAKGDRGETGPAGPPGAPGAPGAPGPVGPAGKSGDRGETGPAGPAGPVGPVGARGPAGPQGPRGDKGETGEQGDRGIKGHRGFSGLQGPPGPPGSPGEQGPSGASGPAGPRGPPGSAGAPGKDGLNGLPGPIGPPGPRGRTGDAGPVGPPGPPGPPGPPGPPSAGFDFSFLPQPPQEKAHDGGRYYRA
Sequence of collagen I (P08123 80-1119, chain 2 of 2, further chain): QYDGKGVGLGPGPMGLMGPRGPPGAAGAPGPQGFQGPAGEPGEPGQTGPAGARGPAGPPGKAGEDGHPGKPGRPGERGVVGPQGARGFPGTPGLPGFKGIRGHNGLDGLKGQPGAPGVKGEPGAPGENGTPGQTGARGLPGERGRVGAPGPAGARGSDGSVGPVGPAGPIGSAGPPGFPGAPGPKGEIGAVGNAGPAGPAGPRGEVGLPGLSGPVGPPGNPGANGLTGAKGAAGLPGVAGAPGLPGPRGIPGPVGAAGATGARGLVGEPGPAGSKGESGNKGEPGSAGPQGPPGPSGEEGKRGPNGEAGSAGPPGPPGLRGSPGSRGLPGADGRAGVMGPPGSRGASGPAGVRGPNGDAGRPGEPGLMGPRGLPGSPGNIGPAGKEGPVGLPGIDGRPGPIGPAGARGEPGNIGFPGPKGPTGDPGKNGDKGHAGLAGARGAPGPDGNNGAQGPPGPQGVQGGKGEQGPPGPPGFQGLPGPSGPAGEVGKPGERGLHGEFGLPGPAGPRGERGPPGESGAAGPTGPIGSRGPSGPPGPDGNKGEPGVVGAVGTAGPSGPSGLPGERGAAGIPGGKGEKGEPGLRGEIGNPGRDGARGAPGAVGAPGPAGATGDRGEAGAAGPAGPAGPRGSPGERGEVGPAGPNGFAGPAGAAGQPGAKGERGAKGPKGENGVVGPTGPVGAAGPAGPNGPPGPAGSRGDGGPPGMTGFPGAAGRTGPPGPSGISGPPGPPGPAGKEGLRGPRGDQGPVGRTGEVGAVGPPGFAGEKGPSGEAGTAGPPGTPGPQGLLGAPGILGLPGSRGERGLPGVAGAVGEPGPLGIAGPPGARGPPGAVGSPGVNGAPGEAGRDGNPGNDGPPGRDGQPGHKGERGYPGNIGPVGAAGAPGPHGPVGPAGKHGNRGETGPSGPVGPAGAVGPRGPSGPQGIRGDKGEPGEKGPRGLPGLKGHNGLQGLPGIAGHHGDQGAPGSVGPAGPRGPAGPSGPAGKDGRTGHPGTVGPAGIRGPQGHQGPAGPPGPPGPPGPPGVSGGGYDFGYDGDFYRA
Sequence of collagen III (P02461 154-1221): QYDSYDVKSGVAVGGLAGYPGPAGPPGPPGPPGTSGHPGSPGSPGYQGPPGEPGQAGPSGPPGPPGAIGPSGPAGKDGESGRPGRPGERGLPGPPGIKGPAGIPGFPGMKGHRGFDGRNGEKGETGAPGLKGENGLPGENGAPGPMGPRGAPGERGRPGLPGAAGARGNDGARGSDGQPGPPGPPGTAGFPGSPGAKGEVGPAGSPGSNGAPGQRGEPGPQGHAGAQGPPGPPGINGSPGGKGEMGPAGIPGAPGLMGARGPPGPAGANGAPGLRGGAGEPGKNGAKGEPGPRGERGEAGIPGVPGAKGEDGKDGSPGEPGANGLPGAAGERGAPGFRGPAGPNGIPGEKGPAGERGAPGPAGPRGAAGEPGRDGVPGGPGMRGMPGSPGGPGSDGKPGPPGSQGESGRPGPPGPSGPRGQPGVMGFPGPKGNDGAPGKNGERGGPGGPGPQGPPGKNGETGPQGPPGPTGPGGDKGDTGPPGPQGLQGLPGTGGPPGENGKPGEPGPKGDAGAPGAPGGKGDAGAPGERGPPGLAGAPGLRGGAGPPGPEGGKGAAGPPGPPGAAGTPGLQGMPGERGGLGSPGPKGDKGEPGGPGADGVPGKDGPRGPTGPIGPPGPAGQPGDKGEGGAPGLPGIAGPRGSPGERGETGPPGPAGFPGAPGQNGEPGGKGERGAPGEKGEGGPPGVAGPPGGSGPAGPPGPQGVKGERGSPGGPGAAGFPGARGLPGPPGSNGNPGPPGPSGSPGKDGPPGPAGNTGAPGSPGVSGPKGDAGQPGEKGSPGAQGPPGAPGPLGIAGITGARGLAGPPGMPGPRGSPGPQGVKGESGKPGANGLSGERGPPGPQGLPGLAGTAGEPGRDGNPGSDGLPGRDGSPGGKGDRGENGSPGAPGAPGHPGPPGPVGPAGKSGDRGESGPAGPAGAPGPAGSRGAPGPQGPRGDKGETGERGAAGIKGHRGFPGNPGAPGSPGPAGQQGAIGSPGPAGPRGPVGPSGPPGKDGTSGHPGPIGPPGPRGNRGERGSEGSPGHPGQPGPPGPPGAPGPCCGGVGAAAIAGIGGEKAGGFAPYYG

For the substance “collagen-binding, serum albumin-fused IL-4 variant (CBD-SA-IL-4)”, the figures for the Kd in assay [1] and in assay [2] were 8 nM and 37 nM, respectively. For “collagen-binding, serum albumin-fused IL-4 variant (CBD-SA-IL-4) (from UniProt P04275)”, the koff in assay [3] turned out to be 0.0026 s⁻¹.

In general, Kd refers to the free concentration of one partner at which half of the binding sites on the other are occupied at equilibrium, for simple one-to-one binding. Read a low Kd as higher affinity. For orientation: koff means a measure of how fast the partners let go of each other. A lower koff goes with slow dissociation.
